Measured values from PMC12269843 (2025).
Where no end group is shown, it is not given here. [ ]: non-standard residue; d: D form. Cit = NC(=O)NCCC[C@H](N)C(=O)O

Target: HLA-DRB1*04:05 protein (human)
Experiment: FP

B1: TNC1014,1016cit peptide (peptide)
peptide: D[Cit]Y[Cit]LNYSLPTG
B1 gave an IC50 of 4.81 µM.
